The text below walks through data of PMC11658694, “Acetylation of the yeast Hsp40 chaperone protein Ydj1 fine-tunes proteostasis and translational fidelity” (PLOS Genetics, 2024).

Experiment [1] addresses T1, Ssa1 (purified) (S. cerevisiae (budding yeast), UniProt P10591 1-642). The experiment can be described thus: cell-based or functional assay.
The target of experiment [2] is T1, Ssa1 (purified). The experiment can be described thus: BLI; biotinylated Ydj1 wild-type or mutant (5 μg/ml, equivalent loading) on streptavidin biosensors, Ssa1 (1 μM) in solution; Octet R4, 23°C; 25 mM Hepes pH 7.5, 50 mM KCl, 2 mM DTT, 5 mM MgCl2, 0.5 mM ATP, 0.02% Tween-20; non-specific binding subtracted. The settings on record: both partners purified.

T1 sequence (P10591 whole entry): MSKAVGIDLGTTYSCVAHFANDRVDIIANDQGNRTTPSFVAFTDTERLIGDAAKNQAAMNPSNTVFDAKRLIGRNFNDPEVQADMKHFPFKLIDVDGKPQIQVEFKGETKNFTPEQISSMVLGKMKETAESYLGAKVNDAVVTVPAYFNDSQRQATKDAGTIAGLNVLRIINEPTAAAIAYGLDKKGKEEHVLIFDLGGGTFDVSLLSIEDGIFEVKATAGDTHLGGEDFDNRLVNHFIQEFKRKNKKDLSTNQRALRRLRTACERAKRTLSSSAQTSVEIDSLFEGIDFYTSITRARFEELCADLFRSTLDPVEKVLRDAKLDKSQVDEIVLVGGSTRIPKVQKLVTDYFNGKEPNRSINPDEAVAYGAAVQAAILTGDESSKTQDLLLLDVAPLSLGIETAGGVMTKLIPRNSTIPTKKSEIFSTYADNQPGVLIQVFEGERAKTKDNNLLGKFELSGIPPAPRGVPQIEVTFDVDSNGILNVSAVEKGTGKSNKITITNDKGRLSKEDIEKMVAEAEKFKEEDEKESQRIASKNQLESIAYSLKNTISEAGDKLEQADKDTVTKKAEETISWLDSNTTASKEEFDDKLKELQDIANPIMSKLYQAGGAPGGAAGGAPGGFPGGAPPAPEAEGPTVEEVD

B1: His-tagged Ydj1 6KR (natural protein, S. cerevisiae (budding yeast), UniProt P25491 1-409, looked up)
chain: MVKETKFYDILGVPVTATDVEIRRAYRKCALRYHPDRNPSEEAAERFREASAAYEILSDPEKRDIYDQFGEDGLSGAGGAGGFPGGGFGFGDDIFSQFFGAGGAQRPRGPQRGKDIKHEISASLEELYKGRTAKLALNKQILCKECEGRGGKKGAVKKCTSCNGQGIKFVTRQMGPMIQRFQTECDVCHGTGDIIDPKDRCKSCNGKKVENERKILEVHVEPGMKDGQRIVFKGEADQAPDVIPGDVVFIVSERPHKSFKRDGDDLVYEAEIDLLTAIAGGEFALEHVSGDWLKVGIVPGEVIAPGMRKVIEGKGMPIPKYGGYGNLIIKFTIKFPENHFTSEENLKKLEEILPPRIVPAIPKKATVDECVLADFDPAKYNRTRASRGGANYDSDEEEQGGEGVQCASQ
modifications: biotin (labelled with a 1.5-fold excess of NHS-PEG4-Biotin, for BLI)
On to B1, for which the “reactivation of chemically denatured luciferase (3 μM Ssa1, 0.3 μM Ydj1), against wild-type” value in the experiment with Ssa1 (purified) [1] was around 2 fold.

B2: His-tagged Ydj1 K23R (natural protein, S. cerevisiae (budding yeast), UniProt P25491 1-409, looked up)
chain: MVKETKFYDILGVPVTATDVEIRKAYRKCALKYHPDKNPSEEAAEKFKEASAAYEILSDPEKRDIYDQFGEDGLSGAGGAGGFPGGGFGFGDDIFSQFFGAGGAQRPRGPQRGKDIKHEISASLEELYKGRTAKLALNKQILCKECEGRGGKKGAVKKCTSCNGQGIKFVTRQMGPMIQRFQTECDVCHGTGDIIDPKDRCKSCNGKKVENERKILEVHVEPGMKDGQRIVFKGEADQAPDVIPGDVVFIVSERPHKSFKRDGDDLVYEAEIDLLTAIAGGEFALEHVSGDWLKVGIVPGEVIAPGMRKVIEGKGMPIPKYGGYGNLIIKFTIKFPENHFTSEENLKKLEEILPPRIVPAIPKKATVDECVLADFDPAKYNRTRASRGGANYDSDEEEQGGEGVQCASQ
modifications: biotin (labelled with a 1.5-fold excess of NHS-PEG4-Biotin, for BLI)
notes: Ydj1, yeast Hsp40; Tag end: see m28; source: E. coli Rosetta (DE3), purified (Ni-sepharose, Superdex 200); not shown: His6, N-terminal, kept
For B2, the binding result with Ssa1 (purified) [2] was “binds”.

B3: His-tagged Ydj1 K37R (natural protein, S. cerevisiae (budding yeast), UniProt P25491 1-409, looked up)
chain: MVKETKFYDILGVPVTATDVEIKKAYRKCALKYHPDRNPSEEAAEKFKEASAAYEILSDPEKRDIYDQFGEDGLSGAGGAGGFPGGGFGFGDDIFSQFFGAGGAQRPRGPQRGKDIKHEISASLEELYKGRTAKLALNKQILCKECEGRGGKKGAVKKCTSCNGQGIKFVTRQMGPMIQRFQTECDVCHGTGDIIDPKDRCKSCNGKKVENERKILEVHVEPGMKDGQRIVFKGEADQAPDVIPGDVVFIVSERPHKSFKRDGDDLVYEAEIDLLTAIAGGEFALEHVSGDWLKVGIVPGEVIAPGMRKVIEGKGMPIPKYGGYGNLIIKFTIKFPENHFTSEENLKKLEEILPPRIVPAIPKKATVDECVLADFDPAKYNRTRASRGGANYDSDEEEQGGEGVQCASQ
modifications: biotin (labelled with a 1.5-fold excess of NHS-PEG4-Biotin, for BLI)
Take B3: in the experiment with Ssa1 (purified) [1], the “reactivation of chemically denatured luciferase (3 μM Ssa1, 0.3 μM Ydj1), against wild-type” value is around 2 fold.

B4: His-tagged Ydj1 wild-type (natural protein, S. cerevisiae (budding yeast), UniProt P25491 1-409, looked up)
chain: MVKETKFYDILGVPVTATDVEIKKAYRKCALKYHPDKNPSEEAAEKFKEASAAYEILSDPEKRDIYDQFGEDGLSGAGGAGGFPGGGFGFGDDIFSQFFGAGGAQRPRGPQRGKDIKHEISASLEELYKGRTAKLALNKQILCKECEGRGGKKGAVKKCTSCNGQGIKFVTRQMGPMIQRFQTECDVCHGTGDIIDPKDRCKSCNGKKVENERKILEVHVEPGMKDGQRIVFKGEADQAPDVIPGDVVFIVSERPHKSFKRDGDDLVYEAEIDLLTAIAGGEFALEHVSGDWLKVGIVPGEVIAPGMRKVIEGKGMPIPKYGGYGNLIIKFTIKFPENHFTSEENLKKLEEILPPRIVPAIPKKATVDECVLADFDPAKYNRTRASRGGANYDSDEEEQGGEGVQCASQ
modifications: biotin (labelled with a 1.5-fold excess of NHS-PEG4-Biotin, for BLI)
notes: Ydj1, yeast Hsp40; YDJ1 gene amplified from yeast genomic DNA, in pRSETA; Methods: 6xHIS-TEV-Ydj1 fusion; A TEV site lies between tag and Ydj1; A fragment lacking the J-domain co-purifies; also called HIS-Ydj1; Ydj1-biotin; source: E. coli Rosetta (DE3), purified (Ni-sepharose, Superdex 200); not shown: His6, N-terminal, kept
Regarding B4, in the experiment with Ssa1 (purified) [2], the binding result is “binds”.

B5: His-tagged Ydj1 K23Q (natural protein, S. cerevisiae (budding yeast), UniProt P25491 1-409, looked up)
chain: MVKETKFYDILGVPVTATDVEIQKAYRKCALKYHPDKNPSEEAAEKFKEASAAYEILSDPEKRDIYDQFGEDGLSGAGGAGGFPGGGFGFGDDIFSQFFGAGGAQRPRGPQRGKDIKHEISASLEELYKGRTAKLALNKQILCKECEGRGGKKGAVKKCTSCNGQGIKFVTRQMGPMIQRFQTECDVCHGTGDIIDPKDRCKSCNGKKVENERKILEVHVEPGMKDGQRIVFKGEADQAPDVIPGDVVFIVSERPHKSFKRDGDDLVYEAEIDLLTAIAGGEFALEHVSGDWLKVGIVPGEVIAPGMRKVIEGKGMPIPKYGGYGNLIIKFTIKFPENHFTSEENLKKLEEILPPRIVPAIPKKATVDECVLADFDPAKYNRTRASRGGANYDSDEEEQGGEGVQCASQ
modifications: biotin (labelled with a 1.5-fold excess of NHS-PEG4-Biotin, for BLI)
notes: as for B2
With B5, the binding result with Ssa1 (purified) [2] was “binds”.
